Experimental data: the nanobody polyreactivity screen of Harvey et al. (2022)

test: yeast display, Sf9 membrane polyspecificity reagent, FACS + sequencing; frameworks hold sequencing errors
Outline: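 After 36–48 hours of galactose induction, yeast (Saccharomyces cerevisiae BJ5465) displaying a synthetic nanobody library were stained at 4 °C for 1 hour with 10% biotinylated, detergent-solubilized Sf9 membrane reagent. Streptavidin microbeads enriched the stained cells before FACS sorting into low and high (top ~1%) gates on anti-HA and streptavidin fluorescence. Each clone's polyreactivity label reflects its gate of origin.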

Sequence	polyreactivity (PSR sort gate)
QVQLVESGGGLVQAGGSLRLSCAASGRIFQPNAMGWYRQATGNERELVAAISSSGGRTYYADSVKGRFTISRDNAKNTVYLQMNSLKPEDTAVYYCNAGGYRYRSYDYWGQGNQVTVSS	high polyreactivity
QVQLVESGGGLVQAGGSLRLSCAASGRIFQPYAMGWYRPAPGKERELVAVITSGGSTNYADSVKGRFTISRDNAKNTVYLQMNSLKPEDTAVYYCNAVRTVNDYHYDYWGQGTQVTVSS	high polyreactivity
QVQLVESGGGLVQAGGSLRLSCAASGRIFQPYAMGWYRQAPGKERELVAAITRRAGSTYYADSVKGRFTISRDNAKNTVYLQMNSLKPEDTAVYYCAARGLYWAYEMEYWGQGTQVTVSS	low polyreactivity
QVQLVESGGGLVQAGGSLRLSCAASGRIFQRYAMGWYRQAPGKERELVAVITKRGGNTYYADSVKGRFTISRDNAKNTVYLQMNSLKPEDTAVYYCATRSGRSTGDYWGQGTQVTVSS	high polyreactivity
QVQLVESGGGLVQAGGSLRLSCAASGRIFQSNAMGWYRQAPGKEREFVARISKRGGSTYYADSVKGRFTISRDNAKNTVYLQMNSLKPEDTAVYYCAVRRHDRGTMGYWGQGTQVTVSS	low polyreactivity
QVQLVESGGGLVQAGGSLRLSCAASGRIFQSNAMGWYRQAPGKERELVAAISYSGGSTYYADSVKGRFTISRDNAKNTVYLQMNSLKPEDTAVYYCAADIFSPAFDYWGQGTQVTVSS	low polyreactivity
QVQLVESGGGLVQAGGSLRLSCAASGRIFQSYAMGWYRQAPGKERELVAGINSDTSTNYADSVKGRFTISRDNAKNTVYLQMNSLKPEDTAVYYCNAGWDTYYWQSTEFDYWGQGSQVTVSS	low polyreactivity
QVQLVESGGGLVQAGGSLRLSCAASGRIFQTYAMGWYRQAPGKERELVAAISSRGRTYYADSVKGRFTISRDNAKNTVYLQMNSLKPEDTAVYYCAARDWSHRPRGYDYWGQGTQVTVSS	high polyreactivity
QVQLVESGGGLVQAGGSLRLSCAASGRIFQTYTMGWYRQAPGKERELVARITGGDSTYYADSVKGRFTISRDNAKITVYLQMNSLKPEDTAVYYCAAEVWSYWGTFNYWGQGTQVTVSS	low polyreactivity
QVQLVESGGGLVQAGGSLRLSCAASGRIFQVNAMGWYRQAPGKERELVAAITYSGGTTYYADSVKGRFTISRDNAKNNVYLQMNRLKPEYTAVYYCAAEGYGAQGDPWQYGYEYWGQGTKVTVSS	low polyreactivity
QVQLVESGGGLVQAGGSLRLSCAASGRIFQWNAMGWYRQAPGKERELVAAITYSGSSTNYADSVKGRFTISRDNAKNTVYLQMNSLKPEDTAVFYCNRDFYQYLSYFWHYGYWGQGTQVTVSS	low polyreactivity
QVQLVESGGGLVQAGGSLRLSCAASGRIFQYNAMGWYRQAPGKDRELVAAIRRGGGSTYYADSVKGRFTISRDNAKNTVYLQMNSLKPEDTAVYYCAARRKRVSFYPEYDYWGQGTQVTVSS	low polyreactivity
QVQLVESGGGLVQAGGSLRLSCAASGRIFQYNAMGWYRQAPGKERALVAAIRRGGGSTYYADSVKGRFTISRDNAKNTVYLQMNSLKPEDTAVYYCAARRKRVSFYPEYDYWGQGTQVTVSS	low polyreactivity
QVQLVESGGGLVQAGGSLRLSCAASGRIFQYNTMGWYRQAPGKERELVARISWSGGSTRYADSVKGRFTISRDNAKNTVDLQMNSLKPEETEVYYCAVQEAYRYAHAYYYWGQGTQVTVSS	high polyreactivity
QVQLVESGGGLVQAGGSLRLSCAASGRIFQYYAMGWYRQAPGKERELVASISGRGGRTYYADSVKGRLTISRDNAKNTVYLQMNSLKPEDTAVYYCNAVFSTIRYIRSYNYWGQGTQVTVSS	high polyreactivity
QVQLVESGGGLVQAGGSLRLSCAASGRIFQYYAMGWYRQAPGKERELVATITSTGSTYYADSVKGRFTISRDNAKNTVYLQMNSLKPEDTAVYYCNADPWGIYETFGDHDYWGQGTQVTVSS	low polyreactivity
QVQLVESGGGLVQAGGSLRLSCAASGRIFQYYTIGWYRQATGKERELVAAIRSSGGITYYADSVKGRFTISRDNAKYTVYLQMNSLKPEDTAVYYCAARWYRSKYDYWGQGTQVTVSS	high polyreactivity
QVQLVESGGGLVQAGGSLRLSCAASGRIFQYYTMGWNRQAPGKERELVAAITYSGGDTRYADSVKGRFTISRDTAKNTVYLQMNSLKPEDTAVYYCAADYFDQYQYGVWTYGYWGQGTQVTVSS	low polyreactivity
QVQLVESGGGLVQAGGSLRLSCAASGRIFQYYTMGWSRQAPGKERELVAAITRSGGSTYYADSVKGRFTISRDNAKNTVYLQMNSLKPEDTAVYYFNADTRVKLPWYYTFDYLGQGTQVTVSS	low polyreactivity
QVQLVESGGGLVQAGGSLRLSCAASGRIFQYYVMGRYRQAPGKEREWVAAMTSGGGTKYADSVKGRFTISRDNEKNTVYLQMNSLKPEDTAVYYCAAAWFDQYSRYDYWGQGSQVTVSS	low polyreactivity
QVQLVESGGGLVQAGGSLRLSCAASGRIFRANTMGWYRQAPGKERELVAVITASGGSTYYADSVKGRFTISRDNAKNTVYLQMNSLKPEDTAVYYCNVRWSPAGTGLLDYWGQGTQVTVSS	high polyreactivity

Sequence	polyreactivity (PSR sort gate)
QVQLVESGGGLVQAGGSLRLSCAASGRIFRAYAMGWYRQAPGKERELVAAISSRGGSTYYADSVKGRFTISRDNAKNTVYLQMNSLKPEDTAVYYCNVDTPFREGSYDYWGQGTQVSVSS	high polyreactivity
QVQLVESGGGLVQAGGSLRLSCAASGRIFRAYAMGWYRQAPGKERELVAAISYRGGSTYYADSVKGRFTISRDNAKNTVYLQMNSLKPEDTAVYYCAADSDRSVWIYGYSGQGTQVTVSS	low polyreactivity
QVQLVESGGGLVQAGGSLRLSCAASGRIFRAYAMGWYRQAPGKERELVAAITSGVSTNYADSVKGRFTISRDNAKNTVYLQMNSLKPEDTAVYYCAADIYVIYEYWGQGTQVTVSS	low polyreactivity
QVQLVESGGGLVQAGGSLRLSCAASGRIFRDYDMGWYRKAPGKEWELVAAITYRGGSTYYADSVKGRFTISRDNAKNTVYLQINSLKPEDTAVYYCAAGSRSPHWYTRELDYWVQGTQVTVSS	low polyreactivity
QVQLVESGGGLVQAGGSLRLSCAASGRIFRFNAMGWYRQAPGKERELVAAITGSGGTTFYADSVKGRFTLSRDNAKNTVYLQMNSLKPEDTAVYYCNTLGNWRPVYNQPRYEYWGQGTQVTVSS	high polyreactivity
QVQLVESGGGLVQAGGSLRLSCAASGRIFRFNAMGWYRQAPGKERELVAAITSGVRTNYADSVKGRFTISRDNAKNTVYLQMNSLKPEDTAVYYCAASRHYPGYRRYDYWGQGTQVTVSS	high polyreactivity
QVQLVESGGGLVQAGGSLRLSCAASGRIFRFYAMGWYRKAPGKERELVAAITRNVGSTFYADSVKGRFTISRDNAKKTVYLQMNSLKPADTAVYYCAAESDYYYRYTFDYWGQGTQVTVSS	low polyreactivity
QVQLVESGGGLVQAGGSLRLSCAASGRIFRFYAMGWYRQAPGKERELVADISRRGGSTYYADSVKGRFTISRDNAKNTVYLQMNSLKPEDTAVYYCNARWYRTGSTYHEDYWGQGTQVTVSS	high polyreactivity
QVQLVESGGGLVQAGGSLRLSCAASGRIFRFYAMGWYRQAPGKERELVASISSTGGSTYYADSVKGRFTISRDNAKNTVYLQMNSLKPEDTAVYYCNTVYGYVTTYGYWGQGTQVTVSS	high polyreactivity
QVQLVESGGGLVQAGGSLRLSCAASGRIFRFYVMGWYRQAPGKERELVAAISDSSPSTYYADSVKGRFTISRDNAKKTVYLQMNSLKPEDTAVYYCAARYPPYWSYDYDYWGQGTQVTVSS	low polyreactivity
QVQLVESGGGLVQAGGSLRLSCAASGRIFRGNAMGWYRQAPGKERQLVADINRSGGSTYYADSVKGRFTISRDNAKNTVYLQMNSLKPEDTAVYYCNAKYRVPYAVGGDYGYWGQGTQVTVSS	high polyreactivity
QVQLVESGGGLVQAGGSLRLSCAASGRIFRGNTMGWYRQAPGKERELVAAITRGGSTSYADSVKGRFTISRDNAKNTVNLQMNSLKPEDTAVYYCATRTHGEGTRRDSWGQGTQVTVSS	low polyreactivity
QVQLVESGGGLVQAGGSLRLSCAASGRIFRGNTMGWYRQAPGKERELVATINGRGGSTYYADSVKGRFTISRDNAKNTVYLQMNSLKPVDTAVYYCAARRGYPRFEYWGQGTQVTVSS	high polyreactivity
QVQLVESGGGLVQAGGSLRLSCAASGRIFRGYAMGWSRQAPGKERELVAAITSRGGSTYADSVKGRFTISRDNAKNTVYLQMNSLKPEDTAVYYCNAGYRADSSKLVFRGYPRYDYWGQGTQVTVSS	low polyreactivity
QVQLVESGGGLVQAGGSLRLSCAASGRIFRGYAMGWYRQAPGKEREFVAAITKNGGSTYYADSVKGRFTISRDNAKNTVYLQMNSLKPEDTAVYYCAAGGPSTLDDYWGQGTQVTVSS	low polyreactivity
QVQLVESGGGLVQAGGSLRLSCAASGRIFRGYAMGWYRQAPGKEREFVADITRSGGSTYYADSVKGRFTISRDNAKNTVYLQMNSLKPEDTAVYYCAREWYQYSPYHRFDYWGQGTQVTVSS	high polyreactivity
QVQLVESGGGLVQAGGSLRLSCAASGRIFRGYAMGWYRQAPGKERELVAAISYSGGTTYYADSVKGRFTISRDNAKNTVYLQMNSLKPEDTAVYYCNVDADYESQWLSVGYDYWGQGTQVTVSS	low polyreactivity
QVQLVESGGGLVQAGGSLRLSCAASGRIFRGYAMGWYRQAPGKERELVAAITKRGGSTYYADSVKGRFTISRDNAKNTVYFQMNSLKPEDTAVYYCAAYLPGWELREYGYWGQGTQVTVSS	high polyreactivity
QVQLVESGGGLVQAGGSLRLSCAASGRIFRGYAMGWYRQAPGKERELVAGISSGDNTYYADSVKGRFTISRDNAKNTVYLQMNSLKPEDTAVYYCNADHVYAVDYDYWGQGTQVTVSS	low polyreactivity
QVQLVESGGGLVQAGGSLRLSCAASGRIFRGYGMGWYRQAPGKERELVAAITSRGGSTYYADSVKGRFTISRDNAKYTVYLQMNSLKPEDTAVYYCNRDFNHRPLQSPKRPPKLGYWGQGTQVTVSS	high polyreactivity
